Assay results published in the supplement of paper PMC10065799, “High-throughput profiling of sequence recognition by tyrosine kinases and SH2 domains using bacterial peptide display” (eLife, 2023).

Legend:
AncSZ = experiment: phosphorylation enrichment, bacterial display (enrichment ratio); higher = better substrate or ligand; peptides without Tyr show the background
Fer (mouse) = experiment: as above
Hck = Hck (UniProt P08631); experiment: as above
EPHB2 = EPHB2 (UniProt P29323); experiment: as above
MERTK = MERTK (UniProt Q12866); experiment: as above
Fyn = Fyn (UniProt P06241); experiment: as above
Fyn, sequence (P06241 whole entry, looked up): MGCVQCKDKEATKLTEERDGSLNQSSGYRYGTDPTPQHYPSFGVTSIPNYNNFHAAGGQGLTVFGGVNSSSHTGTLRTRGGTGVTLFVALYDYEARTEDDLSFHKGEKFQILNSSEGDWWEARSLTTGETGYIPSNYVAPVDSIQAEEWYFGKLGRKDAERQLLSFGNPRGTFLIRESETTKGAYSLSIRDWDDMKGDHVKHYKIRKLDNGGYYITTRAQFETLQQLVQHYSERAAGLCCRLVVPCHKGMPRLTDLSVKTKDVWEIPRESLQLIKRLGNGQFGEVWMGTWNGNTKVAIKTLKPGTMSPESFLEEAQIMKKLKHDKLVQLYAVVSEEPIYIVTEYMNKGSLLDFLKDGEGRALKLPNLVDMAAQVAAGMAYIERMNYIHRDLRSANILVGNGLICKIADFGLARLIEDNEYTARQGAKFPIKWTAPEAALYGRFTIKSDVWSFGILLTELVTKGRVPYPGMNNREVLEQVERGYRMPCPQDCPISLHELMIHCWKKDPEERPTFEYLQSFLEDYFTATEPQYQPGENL

c-Abl (mouse) = experiment: as above
FGFR1 = FGFR1 (UniProt P11362); experiment: as above
FGFR1, sequence (P11362 whole entry, looked up): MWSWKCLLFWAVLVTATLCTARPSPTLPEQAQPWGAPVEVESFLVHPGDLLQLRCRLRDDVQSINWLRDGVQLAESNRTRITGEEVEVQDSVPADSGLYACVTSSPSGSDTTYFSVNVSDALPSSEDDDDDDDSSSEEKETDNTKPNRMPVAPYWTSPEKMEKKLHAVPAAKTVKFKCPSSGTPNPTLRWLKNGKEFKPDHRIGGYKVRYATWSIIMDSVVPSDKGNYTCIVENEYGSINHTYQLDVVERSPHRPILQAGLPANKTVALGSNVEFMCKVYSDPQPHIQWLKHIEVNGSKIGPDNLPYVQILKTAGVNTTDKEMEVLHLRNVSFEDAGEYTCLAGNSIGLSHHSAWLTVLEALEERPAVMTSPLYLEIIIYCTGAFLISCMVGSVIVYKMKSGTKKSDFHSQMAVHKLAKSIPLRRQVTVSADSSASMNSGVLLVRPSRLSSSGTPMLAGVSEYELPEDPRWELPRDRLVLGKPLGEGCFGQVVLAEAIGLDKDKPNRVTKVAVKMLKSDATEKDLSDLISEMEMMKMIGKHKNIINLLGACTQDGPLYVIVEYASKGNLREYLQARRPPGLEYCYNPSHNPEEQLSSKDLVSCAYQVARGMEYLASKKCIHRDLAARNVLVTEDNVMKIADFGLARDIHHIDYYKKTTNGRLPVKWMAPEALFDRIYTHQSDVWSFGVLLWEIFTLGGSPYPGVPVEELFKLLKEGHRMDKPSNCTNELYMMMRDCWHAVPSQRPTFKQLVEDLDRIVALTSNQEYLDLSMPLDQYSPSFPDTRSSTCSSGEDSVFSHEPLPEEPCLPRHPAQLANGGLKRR

FGFR3 = FGFR3 (UniProt P22607); experiment: as above
FGFR3, sequence (P22607 whole entry, looked up): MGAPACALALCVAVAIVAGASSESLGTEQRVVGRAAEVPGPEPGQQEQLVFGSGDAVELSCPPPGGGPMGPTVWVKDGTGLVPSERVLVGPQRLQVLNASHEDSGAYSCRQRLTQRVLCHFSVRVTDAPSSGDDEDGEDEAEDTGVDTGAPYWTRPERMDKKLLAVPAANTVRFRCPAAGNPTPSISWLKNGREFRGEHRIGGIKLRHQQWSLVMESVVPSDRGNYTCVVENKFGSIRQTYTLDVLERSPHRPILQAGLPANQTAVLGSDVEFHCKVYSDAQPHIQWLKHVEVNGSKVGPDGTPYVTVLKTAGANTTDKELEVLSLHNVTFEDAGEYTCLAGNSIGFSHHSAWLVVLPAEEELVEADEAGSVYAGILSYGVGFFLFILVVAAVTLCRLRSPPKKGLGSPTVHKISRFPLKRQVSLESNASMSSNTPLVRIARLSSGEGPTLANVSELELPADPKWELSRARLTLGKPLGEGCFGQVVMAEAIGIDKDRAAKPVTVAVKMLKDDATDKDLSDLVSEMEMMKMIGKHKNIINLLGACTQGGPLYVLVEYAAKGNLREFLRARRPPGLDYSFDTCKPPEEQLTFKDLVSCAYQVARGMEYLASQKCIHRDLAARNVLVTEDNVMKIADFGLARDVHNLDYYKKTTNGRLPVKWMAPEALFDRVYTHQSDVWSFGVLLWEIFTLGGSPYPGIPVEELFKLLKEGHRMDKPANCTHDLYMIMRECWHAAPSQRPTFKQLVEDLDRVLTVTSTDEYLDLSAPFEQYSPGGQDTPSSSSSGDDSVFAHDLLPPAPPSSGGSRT

Fes = Fes (UniProt P07332); experiment: as above
Fes, sequence (P07332 whole entry, looked up): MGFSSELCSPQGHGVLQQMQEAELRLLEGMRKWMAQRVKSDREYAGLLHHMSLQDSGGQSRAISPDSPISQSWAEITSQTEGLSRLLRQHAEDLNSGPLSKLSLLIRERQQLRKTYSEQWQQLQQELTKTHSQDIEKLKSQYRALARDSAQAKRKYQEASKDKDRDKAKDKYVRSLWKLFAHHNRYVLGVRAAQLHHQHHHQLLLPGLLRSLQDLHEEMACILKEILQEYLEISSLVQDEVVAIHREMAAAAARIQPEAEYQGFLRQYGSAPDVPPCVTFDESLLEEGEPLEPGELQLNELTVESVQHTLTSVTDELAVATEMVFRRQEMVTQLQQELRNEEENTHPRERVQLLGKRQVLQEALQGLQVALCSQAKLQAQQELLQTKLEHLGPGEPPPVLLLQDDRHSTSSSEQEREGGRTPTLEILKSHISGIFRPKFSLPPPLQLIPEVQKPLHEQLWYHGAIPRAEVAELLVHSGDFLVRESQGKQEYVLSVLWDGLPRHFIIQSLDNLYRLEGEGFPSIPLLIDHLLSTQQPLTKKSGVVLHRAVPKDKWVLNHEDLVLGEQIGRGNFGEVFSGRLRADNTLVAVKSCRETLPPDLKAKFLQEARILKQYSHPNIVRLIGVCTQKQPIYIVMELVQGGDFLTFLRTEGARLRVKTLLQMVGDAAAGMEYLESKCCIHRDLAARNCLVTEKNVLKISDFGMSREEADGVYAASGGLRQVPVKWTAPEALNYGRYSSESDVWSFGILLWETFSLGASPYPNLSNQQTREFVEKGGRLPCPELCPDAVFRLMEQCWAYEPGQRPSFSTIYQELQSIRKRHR

EPHB1 = EPHB1 (UniProt P54762); experiment: as above
EPHB1, sequence (P54762 whole entry, looked up): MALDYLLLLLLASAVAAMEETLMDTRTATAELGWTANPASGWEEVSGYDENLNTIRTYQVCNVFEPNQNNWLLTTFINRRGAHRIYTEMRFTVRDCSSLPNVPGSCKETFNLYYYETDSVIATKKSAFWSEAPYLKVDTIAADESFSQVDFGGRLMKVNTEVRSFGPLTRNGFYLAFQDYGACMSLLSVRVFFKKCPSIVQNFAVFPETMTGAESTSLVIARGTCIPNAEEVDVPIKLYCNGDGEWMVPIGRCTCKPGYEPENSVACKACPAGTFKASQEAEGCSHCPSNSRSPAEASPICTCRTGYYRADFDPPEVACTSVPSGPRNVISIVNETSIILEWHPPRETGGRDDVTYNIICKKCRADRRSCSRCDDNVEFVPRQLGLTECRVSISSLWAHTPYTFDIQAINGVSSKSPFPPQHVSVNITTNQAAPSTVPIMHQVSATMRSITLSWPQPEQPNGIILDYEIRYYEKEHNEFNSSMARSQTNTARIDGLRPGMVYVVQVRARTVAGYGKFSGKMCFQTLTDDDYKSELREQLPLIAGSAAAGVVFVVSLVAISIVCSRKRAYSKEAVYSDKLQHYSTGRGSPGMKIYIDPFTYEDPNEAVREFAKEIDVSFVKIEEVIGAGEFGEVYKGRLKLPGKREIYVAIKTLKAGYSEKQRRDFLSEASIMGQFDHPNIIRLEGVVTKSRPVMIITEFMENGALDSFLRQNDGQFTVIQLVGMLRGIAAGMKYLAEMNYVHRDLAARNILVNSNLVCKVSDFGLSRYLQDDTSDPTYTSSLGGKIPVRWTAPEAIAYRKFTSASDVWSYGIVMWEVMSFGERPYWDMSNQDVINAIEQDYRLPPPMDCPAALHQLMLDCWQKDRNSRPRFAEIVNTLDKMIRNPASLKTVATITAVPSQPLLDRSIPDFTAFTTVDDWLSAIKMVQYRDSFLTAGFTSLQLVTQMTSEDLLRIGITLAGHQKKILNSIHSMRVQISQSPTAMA

c-Src = experiment: as above
Jak2 = Jak2 (UniProt O60674); experiment: as above
Grb2 SH2 = Grb2 SH2 (UniProt P62993); experiment: SH2 binding enrichment of the phosphorylated peptide, bacterial display (enrichment ratio); higher = better substrate or ligand; peptides without Tyr show the background
SHP2-C SH2 = experiment: as above
c-Src SH2 = experiment: as above
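Throughout, for SH2 binding enrichment of the phosphorylated peptide, bacterial display: peptide library displayed on the E. coli surface as eCPX fusions, selected cells deep-sequenced, score is each peptide's frequency after selection divided by its frequency in the input.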
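Throughout, for phosphorylation enrichment, bacterial display: 11-residue human phosphosite peptides and single-mutation variants displayed on the E. coli surface, counted by deep sequencing, each peptide's frequency after selection divided by its frequency in the unselected input library; frequency after pTyr selection over input frequency; kinase dosed for 20-30% of maximal phosphorylation in three min.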

Hck, sequence (P08631 whole entry, looked up): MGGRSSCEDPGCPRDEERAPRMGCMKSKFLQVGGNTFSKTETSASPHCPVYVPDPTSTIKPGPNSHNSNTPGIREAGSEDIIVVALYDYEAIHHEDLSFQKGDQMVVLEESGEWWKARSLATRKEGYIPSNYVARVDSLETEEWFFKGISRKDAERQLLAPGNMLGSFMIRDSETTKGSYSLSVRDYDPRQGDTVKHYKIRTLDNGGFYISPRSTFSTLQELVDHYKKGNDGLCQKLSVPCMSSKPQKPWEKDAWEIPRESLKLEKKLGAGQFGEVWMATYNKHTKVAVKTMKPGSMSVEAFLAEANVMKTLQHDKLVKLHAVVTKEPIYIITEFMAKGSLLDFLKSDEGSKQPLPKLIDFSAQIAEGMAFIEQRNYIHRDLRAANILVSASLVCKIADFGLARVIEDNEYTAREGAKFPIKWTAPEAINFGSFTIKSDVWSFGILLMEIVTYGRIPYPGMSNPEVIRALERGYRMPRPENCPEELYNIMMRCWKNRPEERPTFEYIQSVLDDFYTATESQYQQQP

Row | SH2 binding enrichment (Grb2 SH2) | SH2 binding enrichment (SHP2-C SH2) | SH2 binding enrichment (c-Src SH2) | Sequence | phosphorylation enrichment (AncSZ) | phosphorylation enrichment (Fer (mouse)) | phosphorylation enrichment (Hck) | phosphorylation enrichment (EPHB2) | phosphorylation enrichment (MERTK) | phosphorylation enrichment (Fyn) | phosphorylation enrichment (c-Abl (mouse)) | phosphorylation enrichment (FGFR1) | phosphorylation enrichment (FGFR3) | phosphorylation enrichment (Fes) | phosphorylation enrichment (EPHB1) | phosphorylation enrichment (c-Src) | phosphorylation enrichment (Jak2)
1 | 0.833 | 0.861 | 3.35 | SDQRRYSLIDR [CLIP2_Y972] | 0.508 | 0.412 | 0.366 | 0.444 | 0.419 | 0.394 | 0.467 | 0.356 | 0.421 | 0.558 | 0.327 | 0.358 | 0.479
2 | 0.795 | 0.788 | 0.509 | YLGEEYVKAVG [TF_Y674] | 0.908 | 0.393 | 0.329 | 0.391 | 0.403 | 0.465 | 0.645 | 0.446 | 0.523 | 0.823 | 0.454 | 0.444 | 0.698
3 | 1.01 | 1.03 | 1.23 | CTTIHHNYMCN [TP53_Y234_Y234H] | 0.766 | 0.412 | 0.455 | 0.531 | 0.362 | 0.459 | 0.525 | 0.601 | 0.586 | 0.649 | 0.486 | 0.432 | 0.835
4 | 1.29 | 0.956 | 0.82 | TCFDKYTGSTF [FN1_Y101_N104S_YF] | 0.739 | 0.469 | 0.51 | 0.533 | 0.448 | 0.408 | 0.537 | 0.443 | 0.699 | 1.12 | 0.494 | 0.529 | 0.646
5 | 0.592 | 0.554 | 4.29 | VEDHFYEGGIG [TKT_Y564_YF] | 1.24 | 0.704 | 0.538 | 0.543 | 0.575 | 0.684 | 0.893 | 0.58 | 0.875 | 1.12 | 0.63 | 0.594 | 1.13
6 | 0.933 | 0.675 | 0.498 | EDASEYFENYI [PARP4_Y214] | 1.62 | 0.51 | 0.597 | 0.66 | 0.527 | 0.613 | 0.658 | 0.84 | 0.83 | 1.21 | 0.549 | 0.539 | 1.15
7 | 0.918 | 0.765 | 0.61 | RQQEVYLLYKQ [RARRES1_Y159_D158V] | 1.5 | 0.611 | 0.877 | 0.855 | 0.842 | 0.919 | 1.13 | 0.672 | 1.11 | 1.98 | 0.757 | 1.41 | 1.34
8 | 0.706 | 0.678 | 0.491 | REAMEYLESKQ [BTK_Y511_C506R] | 1.62 | 0.704 | 0.505 | 0.573 | 0.501 | 0.703 | 1.15 | 0.754 | 0.794 | 1.15 | 0.657 | 0.701 | 1.09
9 | 0.823 | 0.439 | 0.456 | AQESNYRLLRR [SLC20A2_Y377] | 0.738 | 0.414 | 0.443 | 0.498 | 0.406 | 0.45 | 0.984 | 0.409 | 0.527 | 0.688 | 0.48 | 0.365 | 0.593
10 | 0.622 | 0.617 | 0.42 | CNPLCYPTIMI [OR6K6_Y160_R159C] | 0.867 | 1.37 | 0.442 | 0.524 | 0.917 | 0.408 | 0.596 | 1.71 | 0.828 | 0.821 | 0.518 | 0.416 | 0.721
11 | 12.5 | 1.58 | 2.84 | VKANTYENFWP [GATM_Y100_K102N_YF] | 0.926 | 2.02 | 2.1 | 2.03 | 3.58 | 3.61 | 0.904 | 0.415 | 0.661 | 1.04 | 3.6 | 4.08 | 0.954
12 | 0.834 | 0.699 | 0.565 | VFSATYHPDHW [EFCAB12_Y544_P541S_YF] | 0.739 | 0.55 | 0.466 | 0.519 | 0.492 | 0.472 | 0.676 | 0.548 | 0.614 | 0.785 | 0.518 | 0.761 | 0.807
13 | 0.729 | 0.691 | 0.973 | IKRIAYEFVEM [ADA_Y84] | 0.85 | 2.96 | 0.414 | 0.478 | 0.388 | 0.438 | 0.599 | 0.564 | 0.58 | 0.837 | 0.387 | 0.383 | 0.701
14 | 0.886 | 1.15 | 0.446 | TKDTIYKQPMF [GBA_Y451_F450I] | 0.704 | 0.391 | 0.8 | 0.439 | 0.499 | 0.502 | 17.4 | 0.406 | 0.57 | 0.821 | 0.503 | 0.6 | 0.907
15 | 1.01 | 0.747 | 0.988 | NTGDYCDLYGG [PTPN11_Y63_Y63C] | 2.71 | 1.48 | 3.78 | 11.3 | 0.838 | 2.26 | 0.877 | 7.05 | 4.75 | 1.16 | 9.45 | 2.91 | 1.04
16 | 0.89 | 0.624 | 0.416 | VHKEGYNKLNQ [ZNF676_Y98] | 0.55 | 0.367 | 0.381 | 0.331 | 0.426 | 0.38 | 0.752 | 0.356 | 0.511 | 0.539 | 0.467 | 0.463 | 0.668
17 | 0.762 | 0.573 | 0.473 | KTDKKYLMIEE [BAG3_Y451] | 0.867 | 0.647 | 0.516 | 0.635 | 0.424 | 0.477 | 0.807 | 0.463 | 0.746 | 1.11 | 0.436 | 0.532 | 0.96

Row | SH2 binding enrichment (Grb2 SH2) | SH2 binding enrichment (SHP2-C SH2) | SH2 binding enrichment (c-Src SH2) | Sequence | phosphorylation enrichment (AncSZ) | phosphorylation enrichment (Fer (mouse)) | phosphorylation enrichment (Hck) | phosphorylation enrichment (EPHB2) | phosphorylation enrichment (MERTK) | phosphorylation enrichment (Fyn) | phosphorylation enrichment (c-Abl (mouse)) | phosphorylation enrichment (FGFR1) | phosphorylation enrichment (FGFR3) | phosphorylation enrichment (Fes) | phosphorylation enrichment (EPHB1) | phosphorylation enrichment (c-Src) | phosphorylation enrichment (Jak2)
18 | 0.838 | 0.73 | 0.466 | SILTVYSKDNF [PANK2_Y400_A398T_YF] | 0.814 | 0.481 | 0.548 | 0.514 | 0.454 | 0.516 | 0.456 | 0.572 | 0.627 | 0.894 | 0.549 | 0.6 | 0.907
19 | 0.806 | 1.07 | 0.569 | AVAFLYFKSIG [ADGRL4_Y301_V300L_YF] | 1.14 | 0.605 | 0.516 | 0.649 | 0.478 | 0.483 | 0.851 | 0.549 | 0.837 | 1.62 | 0.683 | 0.441 | 1.33
20 | 0.952 | 0.799 | 0.641 | DAICYYRMENA [NPHS2_Y195] | 2.23 | 0.736 | 1.11 | 0.795 | 1.28 | 1.34 | 1.03 | 7.73 | 6.5 | 1.44 | 0.866 | 3.12 | 6.63
21 | 0.99 | 0.853 | 0.766 | DKNSSYFADWL [TUBB8_Y340] | 1.13 | 0.564 | 0.492 | 0.53 | 1.15 | 0.584 | 0.746 | 1.51 | 1.38 | 1.09 | 0.573 | 0.512 | 1.39
22 | 1.02 | 2.25 | 0.893 | WFPANYVKLLS [ITSN1_Y1132] | 0.785 | 0.518 | 0.549 | 1.52 | 0.569 | 0.419 | 0.596 | 0.763 | 0.825 | 0.841 | 4.12 | 0.399 | 1.51
23 | 1.07 | 1.12 | 0.953 | ITNLLYHVVGG [GBA_Y412_W417G] | 1.18 | 1.32 | 5.76 | 3.36 | 7.37 | 5.17 | 1.12 | 6.43 | 5.48 | 1.12 | 5.68 | 3.81 | 2.67
24 | 0.916 | 0.793 | 0.448 | DEDFLYREELA [POR_Y575_YF] | 1.17 | 0.544 | 0.44 | 0.594 | 0.489 | 0.443 | 0.763 | 0.536 | 0.725 | 1.21 | 0.506 | 0.487 | 1.15
25 | 0.749 | 0.729 | 0.481 | PAVGIYNDNIN [CDCP1_Y707] | 1.07 | 0.6 | 1.17 | 0.685 | 0.641 | 1.29 | 0.71 | 0.612 | 0.575 | 1.08 | 0.806 | 1.12 | 0.925
26 | 1.07 | 0.604 | 0.523 | VATRWYRSPEL [CDKL5_Y177] | 0.834 | 0.384 | 0.482 | 0.516 | 0.459 | 0.385 | 0.575 | 0.372 | 0.518 | 0.73 | 0.421 | 0.448 | 1
27 | 0.899 | 0.701 | 0.674 | RQIQSYTCEID [DES_Y331_H326R] | 1.02 | 0.485 | 0.745 | 0.514 | 0.489 | 0.642 | 0.817 | 0.515 | 0.726 | 1.08 | 0.522 | 0.474 | 0.833
28 | 0.833 | 1.09 | 0.417 | STKPQYQPGEN [SRC_Y530_E527K] | 0.575 | 0.311 | 0.361 | 0.36 | 0.395 | 0.363 | 0.519 | 0.389 | 0.412 | 0.579 | 0.363 | 0.396 | 0.63
29 | 0.777 | 0.713 | 0.512 | AGHEEYSAMRD [KRAS_Y64_Q61H] | 0.797 | 0.43 | 0.542 | 0.578 | 0.532 | 0.588 | 0.616 | 0.51 | 0.588 | 0.981 | 0.462 | 0.558 | 0.854
30 | 0.782 | 0.686 | 0.605 | DSMQSYDLDFP [UNC13B_Y243_YF] | 1.15 | 0.541 | 0.461 | 0.546 | 0.453 | 0.48 | 0.623 | 0.537 | 0.646 | 1.02 | 0.642 | 0.569 | 1.03
31 | 0.84 | 0.964 | 0.56 | EGNEQYEGFCV [GRIA3_Y451_R450Q_YF] | 1.29 | 2.87 | 0.721 | 0.639 | 0.832 | 0.726 | 0.791 | 0.618 | 0.822 | 1.41 | 0.962 | 0.788 | 1.01
32 | 0.83 | 0.611 | 0.773 | MSRNLYSGDFF [DDR2_Y736_YF] | 0.825 | 1.57 | 5.38 | 10 | 9.92 | 5.54 | 0.797 | 2.41 | 2.16 | 0.98 | 7.35 | 4.14 | 0.655
33 | 0.839 | 0.834 | 0.591 | FTRNYYVQAVL [CYBA_Y88_R90Q] | 1.01 | 0.512 | 0.521 | 0.558 | 0.887 | 0.486 | 0.813 | 1.59 | 2.67 | 0.981 | 0.66 | 0.538 | 1.06
